Laboratory results: publication PMC11555115

How the values were obtained:
[1] = biological target: His-tagged linear tetra-ubiquitin chains (TR-FRET with SHARPIN NZF) (UniProt P0CG48); assay: TR-FRET assay; conditions: DMSO; mixed and incubated for 1 h; parent: 100; read off a plot; scale: relative fluorescence intensity
[2] = biological target: Sm-di-ubiquitin (GA mutant) (UniProt P0CG48); assay: NanoBiT assay in HEK293T cells; conditions: 1 h, transient transfection, cultured 24 h, read off a plot, scale: relative luminescent intensity

| Substance | percent of parent [1] | percent of parent ([2]; DMSO, parent: 100) | response ([2]; FSL0717 10 μM, parent: est. 60) | response ([2]; FSL0720 10 μM, parent: est. 50) |
| --- | --- | --- | --- | --- |
| GST-tagged SHARPIN NZF T351A; F352A | 38 | – | – | – |
| Lg-HOIL-1L NZF WT (from UniProt Q9WUB0) TR-AA | – | 52 | 37 | 43 |
